The values that follow come from the domain aggregation screens of Martell et al. (2025).
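Further: 20 min heating vs room temperature control held 20 min.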

The data set in a line: soluble fraction after stress (log2 fold change); higher = more stays soluble; pooled small domains, quantitative proteomics. Conditions: stress: 75 degC.
Regarding “HMNSLGYSDFVVDVQNERVASVVIEGLIINGERRDGTKFRTVLPTIGDQRLMDDLINHNVKVLARE”, the “soluble fraction (log2)” value is -0.375.
The value for “HMNSLTVPDITNRTLAEASQVLLDMGLTPIPDAVAKDGVGDDVVYAQSPPPNVGAREGDVVTITYNPA” was 0.452; that for “HMNSNISYSEFLSQVEKGTINSVEITGNSIKGIYADGGEFITFSPGDPGLIDKLQRSDIEILATPPA” was 0.233.
The value for “HMNSPSKVIDISQLRKGMFVQLDLGWMSHPFAVGSFKVSTDEQIQTLRGLGLSEVRYIPEKSDPA” was -1.2; that for “HMNSQSGKGGVGYILETKYGLNLPPKMREAMGYAAKGVSDHLHKELHPDEIFDLFKKTFENVGQPYS” was -0.271.
The value for “HMNSSLLGKRIKSLREDHDLTQKELSLMIGLTPKMISFYENNQRTPPLDILLKLAKIFEVSVDYLIGYA” was -0.615; that for “HMNSTRAPYLLDFEEDAAIREARRAGLVPRIARQPSGEPVGRVILQSHDYDYPMKRGDTILITISSG” was -0.833.
For the sequence “HMNSTSGIAGVGYWINQYRKKKGMSPVDKKSPLVRRVYDWVQEQYDEGRITIISDAELTRQTELAMEA”, the “soluble fraction (log2)” value is -0.482.
Consider “HMNSVAASLREISIKVSGTEDADKVSRLQELSQMPKLDASGIAEANTLLEQLRAKYGDLGLSVDTARGRIV”, for which the “soluble fraction (log2)” value was 0.494.
For “HMNSVSIAPEMLNWVIAHIQMNSLPKQIVEHLTAWISGQKEPTFNQIEKVSRATGIPLGYFFLEQPPKE”, the “soluble fraction (log2)” value was -2.51.
Take “HMNSYKGELLVDDKNIRLDLYLFNQFNFFSRTKIKNYILKGNVLVNNNKTSPSYILKGSEKIYYDFSVS”: the “soluble fraction (log2)” value is -3.21.
Regarding “HMNTEVDKVLLRSGEAYFGEVLLRNDELVMMKTQDGARFQFPVSEIKSIEKVSVADALRHINS”, the “soluble fraction (log2)” value is 0.263.
For “HMNTGFPIILETSDAANLTVGAPIMYRGVEVGKIRNMELNSLGDRVLIHILIGHKYQHLVRQNSEFWFSS”, the “soluble fraction (log2)” value is -4.
With “HMNTKDRIKQLAAQRKITIAELERKLHIANGTIGKWDKQNPSIEPLKKLADYFGVTTDYLLGRT” the figure was -0.381.
Consider “HMNTKLKPLYLLDIFREMTDERHRMTVPELLEELQRRGITAERKGIYRDIDALIQYGADIKHTGTGYYLAR”, for which the “soluble fraction (log2)” value is -0.93.
Consider “HMNTKLSYSDLIEKIEAGQVEKVELDAGGSSAIVKLKNDNIEKRVNVPSIDNLMENLQDNMKTGNISVTE”, for which the “soluble fraction (log2)” value was 0.168.
With “HMNTLLGLSNSFQDNKDLENANSISRRFISYRPRSEAELRIRLLKVFSHEIVLESVAQMYREGLLNDQRF” the figure was -3.18.
With “HMNTLTKEDIQKAIDVIPIDFKSVVILNLVEGFSYKETAEILEIPIGTVMSRLHRGRKILQKLLWEYSSSK” the figure was -1.4; with “HMNTTTTKVVSVSSLNMRSGPSTSYNIIEVLTKDTQVEVISVEDGWAKIKYNSKTGYVSNQYLSDKK”, -0.934.
With “HMNTVAKELATQATQAKKRAFLDAYAETGIIKRAAEIAGIERKSHYLWLEKDPEYVEAFKSAGEQ” the figure was 0.427; with “HMNTVSVGNLGLSVRAVNALKQAGIDTYDKLQELSWEELLLIPKLGQVTAAEIYRFITSYKKG”, -1.56; with “HMNVAETITLGKRLFNHALTILGKKQRNISRKQLKNFLNDLGLKDSKDLYESIGTGDKNPILMAQLLLG”, -0.512.
Consider “HMNVAVGNSKLVGVAGERAYFVNGVGAAARTLSLQVGDALPTGEKVRRIERDGVTMTGASGDVRLSVLP”, for which the “soluble fraction (log2)” value was determined as 0.00812.
The value for “HMNVDALIGTKGIVVQPIRPFAVGQVKVNGQVWSAVGKTPETDIEQGREVKVHAIEGVKLVVTPT” was 0.501; that for “HMNVDALVGMPARVTRAFVQGAGEVKLDNGETWTARLSAGVTDAEASVGQTVSVIAVRGAAVEVAPE” was 0.0183.
Turning to “HMNVDSLIGKKARVLEDIDNLNAKGQVSIDGMEWTARSEDGSEIKKDALVEVVAIEGVKAIVKQ”, the “soluble fraction (log2)” value amounted to 0.242.
Regarding “HMNVEQQNQARENIKRLMEEQGLSQPKLSEKAGIAFGTLSRILRGKQDLTIQTAEKIADALGLSVYDLAE”, the “soluble fraction (log2)” value worked out at 0.31.
For “HMNVKVSVDDIARPGLMASGRVTFADGNRGMWYVDEMGRLGIDPEVEGYQPSEADIQAFQRELQSVMES”, the “soluble fraction (log2)” value was -0.00333.
With “HMNVNSQQINDLEKSIQKFFDKDIKNYLNQNLSNDRMISKNEIDKIILLYYGSDKEPTLDEIKSIFN” the figure was -0.216; with “HMNVNTHKTLILNSTFQPLSLATPQRALALLFSKKINVLKESDIKLRSVGQSVAIPKVAVLTYFVKA”, -0.409; with “HMNVPFGYTIKDGLLVEQPDEKAILDNILTWKKGQMTVAEIAKKTGMETWKIYGILNYWRNK”, -1.14.
Regarding “HMNVRAYKVSKESELTVEEKLEAVRGYGVADLLYVIREFEENPGKYEPEVIKLIVQQLTDKGIM”, the “soluble fraction (log2)” value came to 0.0392.
For “HMNVRRSRTHEKVTTYQGYDIFINKEPNQRGMFTSAPMRGDNEYSNLRGEGKSKQDAVNMTKEKIDEIAA”, the “soluble fraction (log2)” value came to 0.748.
For the sequence “HMNVSVSITKELQVYINDERISSSALESTLKSKLAGIENPTIILRAEEGVPIEKAVNVMDIANRNRYKIVL”, the “soluble fraction (log2)” value is -1.32.
Take “HMNVYAGTMINVVGLQVEDAASRLRGLFYSVKIVEEESQEPDGKVLRQNIAEGTKDLEAWTLVELTVSKYV”: the “soluble fraction (log2)” value was -2.73.
With “HMNVYEVKFGDTLDEIIKTYLFDIPVKKSILRQAVILANPHAFRRNNPHWMYSDRQLKLPELQDIRRAIF” the figure was -0.317; with “HMNYGDVIEGQIMHVDRDELLVDIGSKSEGIIPAREFSTLTDEERAALSVGDHVLVFVVQAENQEGQAV”, 0.297; with “HMNYIEWKNTFKKYLYLLPIKEEKETLAYFDEQYNKLNPKDLDNVENIFSDPIDKAAFVVAFYLEMEDEIK”, -0.895.
In the case of “HMNYIGADAAKNMAAADAQVDTANASFSGANLGEKNGLSYYQVDFTANGREYHYAIDAMTGTVIESSSAAS”, the “soluble fraction (log2)” value is 0.122.
Regarding “HMNYNEKGEYTRTLTSGSETAVMTYRNFGETLDVALFKNGVQTDSLRLIKSEPGVLYRQSNGQFEKI”, the “soluble fraction (log2)” value was -0.158.
With “HMNYSIVNVGFNNKSLFLRSAPGYSASRLLLPFATERAFVRETLSNGWSRVIVRGTEGYLPTEYVAD” the figure was 0.345.
In the case of “HMNYSKQRETILKVLRSTRSHPSVNWIYENVKKEIPDVGLATVYRNLKQLEAAGEIMRIQGDFPEERWDGF”, the “soluble fraction (log2)” value is -1.65.
With “HMNYTALLNNFSENMKKRRVELSLSQKELASIVGVSVRTIQNYENKKTIPTSAVMESISIALDMGLEKMID” the figure was -1.91; with “HMNYTQAQIDRANAVSLEDFLRTQGETLIKSGREYRWKEHDSLTVRGNKWFRHSQSKGGYPIDFVMEFTA”, 0.108.
“HMNYYYKDNQYWYVGFRYDERLVKEIKRFVGAGYNPENKEWYIPFTLPTVAPLQKWLHDNGFVEGMNYYP”: the “soluble fraction (log2)” value is -2.56.
In the case of “HMPAAFALLTDREREIAALIAQRLTNREIAEKLYLSEGSVKQYVNQLYAKLGIEGDTRTKRRRLAEQAK”, the “soluble fraction (log2)” value is -0.641.
The value for “HMPAAKARTWQEATHAFQRDFLLETLRRARFNAADAADQLGLARPALYTTAKRLGLDLVAERQRWEAEAH” was -0.668; that for “HMPAAPVFLQKDLLDAGLIGQADSAARREKLGKILGIGYGNGKVMLQRLNSFGIERDAFEQAVQE” was 0.081.
As to “HMPAASDALAGELAQIARLDIAKLLAGDLSEADWSRITSATVQLSERHPDASDELTALVERIDTAYSARAT”, the “soluble fraction (log2)” value amounted to 0.0397.
As to “HMPAEGWEASGDTWRYRQKDGSYITNAWVQDTDGKWYYFDESSLMVRNQTTSDGYYVGEDGVWTET”, the “soluble fraction (log2)” value was -0.136.
For the sequence “HMPAELGVVVRNANLRSGPGTKYAIVGSAPAGTTVRIAGTNKAGDWYHLSSGRWIAAFLVDRN”, the “soluble fraction (log2)” value is -1.99.
With “HMPAERLSMRKIYEILRLKYGHGLSNREVALSVSVSRSTVADYLLRAQAAGLSWPLPDGLDETGLEQRLFP” the figure was -3.96; with “HMPAFGALTLRQRDLVELIAQGLDNSQIAARLGLAEKTVRNHITMIFNKLEMENRSQVIVRARESGFGAVR”, -1.87.
Turning to “HMPAKIIKKSFVYNPIHRDTEYLAQFLQGEGQVSASGDKLVYYGTVEDISRIKSVLQSVDTPS”, the “soluble fraction (log2)” value worked out at 0.169.
As for “HMPALATKDSVLDGRAEVVSYVRDTSVFYLRVRVPQKQGYRSRRIDGVSTLPEAITKALDTYMDLGT”, the “soluble fraction (log2)” value is -2.6.
The value for “HMPALELLVESKKPLLIHGEKIAEDINLFDREKYFIDDELIRIVKEFPSLKIILEHVSSKYGAD” was -2.18; that for “HMPAMYKAERMNQILSILADQGDVDVGTLARQFGVSLVTIRKDLTYLESSGQLVRTHGGAIAVA” was -0.707; that for “HMPASVEYIRLAAEQMTGQQVTIIEQPGNYAFILRIHLNDIYSLDLAALRARIDELKPAHLTYTVEQYD” was -2.86.
The value for “HMPATTMMVVVDRDLPYGHVLTDRDVRLETRRATSPGASVAFTSIDPVLGQSLTRPLGAGTPVGRADLR” was -0.218; that for “HMPAVVEFDVKPRGEVLVDGIWYGRIPELREVELRPGRHHLRVQNAGHPSLDLVVTLEPGERMTVTHTFA” was -0.529.
With “HMPDAENFRYRVPYTTEQNRLQYYEGDIRAENADKARDQVMQDAQKYFAQNTAFTPNYIDTDIISLD” the figure was 0.946; with “HMPDFAENAVYGKQREDSLYAHAYKHFQLGDTTTVRAAEHLSAEIYPLGQHRPKFMFLNAVTR”, 0.309; with “HMPDITAAVARTLQALRADRGWSLDQLAARSGVSKGVLVALEQGRSNPNLATLARIGDAFGVPVTLLVDL”, -1.45.
As to “HMPDPHSEARNIVLNQLNFMPRSRKELETALAKRNIEADVAKIVLDRFEEIGMVDDAAYAEL”, the “soluble fraction (log2)” value was 0.121.
With “HMPDPLYLINGKIVNKSDFNNIDPRSIQSIEVLKANKALEAFGNDGKNGVIKITLKSSNDQM” the figure was -0.104; with “HMPEEGPSEDGNSFTAKFKLGSDVQGAMEQADAAAKAGLQDAGKGTGQITSRAQVGGYIYSTATA”, 0.142.
The value for “HMPEIFYRKIHRTDHDQIALDAEMIRLLIAIDEKKSLSQIAAEVQMEPMALKKNLGKLIQLGLVEPIK” was -0.616; that for “HMPELSNNLDRDKVALKNFNESLKDGLTPAEAYANHLTNVSKAAQEAARQSNGLPVDIDKYHNSQLAASMA” was 0.378; that for “HMPEMAIRTLRLRNQRGAAVAAEWSRITASLLELRQVEFVNPVDQLIVLKGPEPWAGVAEELVRQLDV” was -2.55.
